Data published in patent US6972324 (Boehringer Ingelheim, dated 2005).

T1: glutathione-S-transferase fusion protein containing domains v3-v10 of human CD44 (human, UniProt P16070 267-604)
T1 construct: also called GST/CD44v3-v10; recombinant antigen; not shown: glutathione-S-transferase (GST) fusion partner
T1 sequence (looked up): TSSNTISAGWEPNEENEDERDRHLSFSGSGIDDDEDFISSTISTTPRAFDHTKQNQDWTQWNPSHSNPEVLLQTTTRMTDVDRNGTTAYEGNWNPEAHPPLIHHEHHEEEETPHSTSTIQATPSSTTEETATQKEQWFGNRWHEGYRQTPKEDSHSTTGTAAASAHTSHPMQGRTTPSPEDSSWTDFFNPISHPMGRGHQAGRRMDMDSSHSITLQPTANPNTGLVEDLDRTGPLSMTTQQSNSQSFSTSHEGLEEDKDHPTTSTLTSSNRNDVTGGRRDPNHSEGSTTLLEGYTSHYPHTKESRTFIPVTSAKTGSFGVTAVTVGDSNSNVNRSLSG


Assays:
[1] = molecular target: CD44v6 on human tumour cells (human) (UniProt P16070); experiment: immunoreactivity assay, 125I-labelled IgG on fixed UM-SCC-11B cells, linear extrapolation to infinite antigen excess, experiment 2
[2] = molecular target: CD44v6 on human tumour cells (human) (UniProt P16070); experiment: immunoreactivity assay, 125I-labelled IgG on glutaraldehyde-fixed UM-SCC-11B cells, experiment 2
[3] = molecular target: CD44v6 on human tumour cells (human) (UniProt P16070); experiment: competitive cell ELISA on fixed A431 cells against mMAb BIWA 1; IC50 relative to BIWA 2
[4] = molecular target: glutathione-S-transferase fusion protein containing domains v3-v10 of human CD44 (human) (UniProt P16070); experiment: SPR (BIAcore 2000), GST/CD44v3-v10 immobilized on CM5 chip
[5] = molecular target: CD44v6 on human tumour cells (human) (UniProt P16070); experiment: immunoreactivity assay, 186Re-MAG3-labelled MAb on fixed UM-SCC-11B cells
[6] = molecular target: glutathione-S-transferase fusion protein containing domains v3-v10 of human CD44 (human) (UniProt P16070); experiment: SPR (BIAcore 2000), GST/CD44v3-v10 immobilized on CM5 chip, MAb injected at 8-67 nM
[7] = molecular target: CD44v6 on human tumour cells (human) (UniProt P16070); experiment: immunoreactivity assay, 131I-labelled IgG on fixed UM-SCC-11B cells, linear extrapolation to infinite antigen excess, experiment 1
[8] = molecular target: CD44v6 on human tumour cells (human) (UniProt P16070); experiment: immunoreactivity assay, 131I-labelled IgG on glutaraldehyde-fixed UM-SCC-11B cells, experiment 1
[9] = molecular target: CD44v6 on human tumour cells (human) (UniProt P16070); experiment: immunoreactivity assay, 131I-labelled IgG on fixed UM-SCC-11B cells, linear extrapolation to infinite antigen excess, experiment 3
[10] = molecular target: CD44v6 on human tumour cells (human) (UniProt P16070); experiment: immunoreactivity assay, 131I-labelled IgG on glutaraldehyde-fixed UM-SCC-11B cells, experiment 2
[11] = molecular target: CD44v6 on human tumour cells (human) (UniProt P16070); experiment: immunoreactivity assay, 131I-labelled IgG on fixed UM-SCC-11B cells, linear extrapolation to infinite antigen excess, experiment 2
[12] = molecular target: CD44v6 on human tumour cells (human) (UniProt P16070); experiment: immunoreactivity assay of clinical 99mTc-/186Re-MAG3-labelled BIWA 4 batches on fixed UM-SCC 11B cells
[13] = molecular target: T1, glutathione-S-transferase fusion …; experiment: SPR (BIAcore 2000), GST/CD44v3-v10 immobilized on CM5 chip
Protocol: (§1) Evaluation of antibody affinity. Measurement of kinetic and affinity constants using recombinant antigen was performed on a BIAcore 2000 system (BIAcore AB, Uppsala, Sweden). A glutathione-S-transferase fusion protein containing domains v3–v10 of human CD44 (GST/CD44v3–v10; 20 μg/ml) was immobilized on a CM5 sensor chip by the amine coupling method according to the manufacturer's instructions, using 10 mM sodium acetate pH 5.0 as coupling buffer. 35 μl of MAb at various concentrations (8–67 nM) in HBS (10 mM HEPES, pH 7.4, 150 mM NaCl, 3.4 mM EDTA, 0.05% BLAcore surfactant P20) were injected over the antigen-coated surface at a flow rate of 5 μL/min. Dissociation of the MAb was assessed for 5 minutes in buffer flow (HBS). Between two analyses, the surface of the chip was regenerated with a single pulse of 15 μl 30 mM HCl. Analysis of the data and calculation of the kinetic constants were performed with BIAcore's BIAevaluation software, version 2.1. Association rates (k_a), dissociation rates (k_d), and dissociation constants (K_d) were assessed for all antibodies.
(§2) In vitro binding characteristics of the CD44v6specific MAbs. The binding affinities of the five MAbs were analyzed using recombinant antigen as well as human tumor cell lines. Kinetic and affinity constants were evaluated by surface plasmon resonance using GST/CD44v3–v10 as immobilized antigen.

[14] = molecular target: CD44v6 on human tumour cells (human) (UniProt P16070); experiment: competitive cell ELISA on fixed A431 cells; inhibition of binding of mMAb BIWA 1, detected with peroxidase-conjugated anti-mouse Fc; unit taken from the concentration axis
[15] = molecular target: T1, glutathione-S-transferase fusion …; experiment: ratio of affinities (SPR on GST/CD44v3-v10, Table 1)
[16] = molecular target: T1, glutathione-S-transferase fusion …; experiment: SPR (BIAcore 2000), GST/CD44v3-v10 immobilized on CM5 chip, MAb injected at 8-67 nM
Protocol: as §1, §2

[17] = molecular target: CD44v6 on human tumour cells (human) (UniProt P16070); experiment: immunoreactivity assay, 131I-labelled IgG on glutaraldehyde-fixed UM-SCC-11B cells, experiment 3
[18] = molecular target: CD44v6 on human tumour cells (human) (UniProt P16070); experiment: immunoreactivity assay, 125I-labelled IgG on fixed UM-SCC-11B cells, linear extrapolation to infinite antigen excess, experiment 3
[19] = molecular target: CD44v6 on human tumour cells (human) (UniProt P16070); experiment: immunoreactivity assay, 125I-labelled IgG on glutaraldehyde-fixed UM-SCC-11B cells, experiment 3

Row | relative IC50 values [3] | Kd relative to murine BIWA 1 [4] | immunoreactive fraction [5] | Kd [6] | koff [6] | kon [6] | Kd relative to murine BIWA 1 [13] | IC50 [14] | Kd [16] | koff [16] | kon [16] | Molecule | also measured
1 | 1 | 0.7 fold | 75% | 0.24 nM | 4.1e-05 s⁻¹ | 170000 M⁻¹ s⁻¹ |  |  |  |  |  | cMAb BIWA 2 (antibody) | Binding Extrapolated (%) (immunoreactive fraction) [1]: 79.9%; Binding to 5 × 10^6 cells (%) [2]: 80.5%
2 |  | 35 fold | 75% | 11 nM | 0.00017 s⁻¹ | 15000 M⁻¹ s⁻¹ |  |  |  |  |  | mMAb U36 (antibody) | Binding Extrapolated (%) (immunoreactive fraction) [7]: 87.4%; Binding to 5 × 10^6 cells (%) [8]: 59.7%
3 | 44 |  | 75% |  |  |  | 10.5 fold | 8.01 µg/mL | 3.4 nM | 0.00022 s⁻¹ | 65000 M⁻¹ s⁻¹ | hMAb BIWA 4 (antibody, human IgG1, kappa, V domains shown, CDR-grafted humanised version of BIWA 1 without murine framework residues; human IgG1/kappa; in the clinical study as 99mTc- or 186Re-MAG3 conjugate; also called Humanized BIWA 4; bivatuzumab) VH: EVQLVESGGGLVKPGGSLRLSCAASGFTFSSYDMSWVRQAPGKGLEWVSTISSGGSYTYYLDSIKGRFTISRDNAKNSLYLQMNSLRAEDTAVYYCARQGLDYWGRGTLVTVSS VL: EIVLTQSPATLSLSPGERATLSCSASSSINYIYWYQQKPGQAPRLLIYLTSNLASGVPARFSGSGSGTDFTLTISSLEPEDFAVYYCLQWSSNPLTFGGGTKVEIKR | Binding Extrapolated (%) (immunoreactive fraction) [9]: 74.5%; Binding to 5 × 10^6 cells (%) [10]: 77.4%; Binding Extrapolated (%) (immunoreactive fraction) [11]: 82.3%; immunoreactive fraction [12]: 80%; fold lower affinity than cMAb BIWA 2 [15]: 14 fold; fold lower affinity than hMAb BIWA 8 [15]: 4 fold; Binding to 5 × 10^6 cells (%) [17]: 77.3%
4 | 2 |  | 75% |  |  |  | 2.6 fold | 0.335 µg/mL | 0.84 nM | 6.3e-05 s⁻¹ | 75000 M⁻¹ s⁻¹ | hMAb BIWA 8 (antibody, human IgG1, kappa, V domains shown, CDR-grafted humanised version of BIWA 1 with two murine residues in light chain framework 2; human IgG1/kappa; also called Humanized BIWA 8) VH: EVQLVESGGGLVKPGGSLRLSCAASGFTFSSYDMSWVRQAPGKGLEWVSTISSGGSYTYYLDSIKGRFTISRDNAKNSLYLQMNSLRAEDTAVYYCARQGLDYWGRGTLVTVSS VL: EIVLTQSPATLSLSPGERATLSCSASSSINYIYWLQQKPGQAPRILIYLTSNLASGVPARFSGSGSGTDFTLTISSLEPEDFAVYYCLQWSSNPLTFGGGTKVEIKR | Binding Extrapolated (%) (immunoreactive fraction) [18]: 92.1%; Binding to 5 × 10^6 cells (%) [19]: 91.8%
